For this assay, the target named is LDL receptor on normal human fibroblasts (human) (UniProt P01130). Briefly: competition with 125I-labeled human plasma LDL (2 µg/ml) for LDL receptors on normal human fibroblasts, 3 h at 4 °C.
“R3500Q LDL (recombinant LDL, human apo-B100 with glutamine for arginine at residue 3500), P04114 28-4563” displayed an ED50 of more than 20 µg/mL. “recombinant control LDL (human apo-B100 with leucine in place of glutamine at position 2153), P04114 28-4563” returned an ED50 of 2.3 µg/mL. The figure for “RK3359-3369SA LDL (recombinant LDL, human apo-B100 with the arginines of Site B changed to serines and the lysines to alanines), P04114 28-4563” is more than 20 µg/mL; for “K3363E LDL (recombinant LDL, human apo-B100 with glutamic acid for lysine at residue 3363), P04114 28-4563” it is 2.4 µg/mL.

Values taken from patent US6933284.
